Data as given in US20230301998A1 (SANFORD BURNHAM PREBYS MEDICAL DISCOVERY INSTITUTE, published 2023).

What was measured:
[1] = target: T1, Interferon-activable protein 204 (Mus musculus) (IFI204) (Mus musculus, UniProt P0DOV2 1-619); experiment: Flag IP and immunoblot of transfected HEK293T lysates
T1 construct: also called IF204
T1 sequence: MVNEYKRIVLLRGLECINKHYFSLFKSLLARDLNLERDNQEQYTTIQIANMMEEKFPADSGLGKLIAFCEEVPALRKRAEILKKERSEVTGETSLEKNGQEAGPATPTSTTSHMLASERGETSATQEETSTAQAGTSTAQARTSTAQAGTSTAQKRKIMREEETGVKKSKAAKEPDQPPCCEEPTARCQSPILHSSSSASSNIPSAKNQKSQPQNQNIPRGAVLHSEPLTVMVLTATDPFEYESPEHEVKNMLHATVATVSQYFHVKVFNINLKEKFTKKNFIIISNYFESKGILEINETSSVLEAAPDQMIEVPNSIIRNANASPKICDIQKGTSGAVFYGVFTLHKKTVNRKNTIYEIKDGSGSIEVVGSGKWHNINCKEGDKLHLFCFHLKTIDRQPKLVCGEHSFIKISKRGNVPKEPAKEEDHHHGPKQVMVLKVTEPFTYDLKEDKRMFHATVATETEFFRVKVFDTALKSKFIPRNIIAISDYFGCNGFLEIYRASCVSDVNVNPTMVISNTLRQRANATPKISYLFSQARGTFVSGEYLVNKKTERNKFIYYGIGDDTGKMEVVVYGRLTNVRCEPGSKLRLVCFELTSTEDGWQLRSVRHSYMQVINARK

HSPA9 = target: T2, HSPA9 (human, UniProt P38646 47-679); experiment: Flag IP of Flag-SHARPIN from WM115 lysate, on-bead tryptic digestion, LC/MS-MS
T2 construct: endogenous protein co-purified from WM115 lysate
In short: (§1)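 WM115 cells transfected with Flag-SHARPIN or empty plasmid; lysed in 1% Triton X-100 buffer (50 mM Tris-HCl pH7.4, 150 mM NaCl, 1 mM EDTA). Lysates pre-cleared 1 h at 4° C, immunoprecipitated on FLAG-M2 agarose overnight at 4° C, washed, then digested with trypsin on-bead for mass spectrometry.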

MYH10 = target: T3, MYH10 (human, UniProt P35580 1-1976, limits assumed); experiment: as above
T3 construct: endogenous protein co-purified from WM115 lysate
In short: as §1

SLC25A13 = target: T4, SLC25A13 (human, UniProt Q9UJS0 2-675); experiment: as above
T4 construct: endogenous protein co-purified from WM115 lysate
T4 sequence (looked up): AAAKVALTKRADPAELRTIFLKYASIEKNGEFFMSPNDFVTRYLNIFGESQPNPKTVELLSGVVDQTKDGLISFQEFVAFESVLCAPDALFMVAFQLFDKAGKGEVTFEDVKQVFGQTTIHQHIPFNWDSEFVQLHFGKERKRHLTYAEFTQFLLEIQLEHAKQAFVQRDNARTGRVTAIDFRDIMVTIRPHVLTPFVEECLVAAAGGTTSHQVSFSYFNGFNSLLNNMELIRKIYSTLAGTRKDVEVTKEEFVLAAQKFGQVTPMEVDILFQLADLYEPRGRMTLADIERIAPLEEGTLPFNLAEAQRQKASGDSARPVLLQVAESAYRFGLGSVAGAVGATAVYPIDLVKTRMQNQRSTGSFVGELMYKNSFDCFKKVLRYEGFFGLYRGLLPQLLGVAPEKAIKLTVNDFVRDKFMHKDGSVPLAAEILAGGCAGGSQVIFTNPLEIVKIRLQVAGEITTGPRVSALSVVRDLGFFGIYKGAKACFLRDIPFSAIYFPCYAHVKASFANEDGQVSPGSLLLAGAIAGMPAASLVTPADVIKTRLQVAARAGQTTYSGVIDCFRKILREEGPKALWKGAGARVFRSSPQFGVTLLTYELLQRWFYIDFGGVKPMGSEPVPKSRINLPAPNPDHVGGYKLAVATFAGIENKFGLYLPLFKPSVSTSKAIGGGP
In short: as §1

PMEL = target: T5, PMEL (human, UniProt P40967 25-661, limits assumed); experiment: as above
T5 construct: endogenous protein co-purified from WM115 lysate
T5 sequence (looked up): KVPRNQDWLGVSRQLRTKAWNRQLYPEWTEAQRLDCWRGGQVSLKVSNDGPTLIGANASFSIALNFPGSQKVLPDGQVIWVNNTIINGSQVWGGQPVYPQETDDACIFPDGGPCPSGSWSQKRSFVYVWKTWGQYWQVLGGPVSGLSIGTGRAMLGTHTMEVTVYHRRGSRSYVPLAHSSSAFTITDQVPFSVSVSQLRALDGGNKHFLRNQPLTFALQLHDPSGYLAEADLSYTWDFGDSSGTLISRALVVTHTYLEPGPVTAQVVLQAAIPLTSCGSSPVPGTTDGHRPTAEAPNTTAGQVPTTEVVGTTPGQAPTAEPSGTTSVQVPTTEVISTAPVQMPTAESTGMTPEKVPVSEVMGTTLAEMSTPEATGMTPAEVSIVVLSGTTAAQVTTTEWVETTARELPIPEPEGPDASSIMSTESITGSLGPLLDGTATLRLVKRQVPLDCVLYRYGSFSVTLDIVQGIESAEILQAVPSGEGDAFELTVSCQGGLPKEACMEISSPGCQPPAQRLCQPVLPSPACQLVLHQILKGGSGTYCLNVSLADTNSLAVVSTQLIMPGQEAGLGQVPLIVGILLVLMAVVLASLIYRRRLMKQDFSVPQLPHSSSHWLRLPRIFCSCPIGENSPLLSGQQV
In short: as §1

TUBB = target: T6, TUBB (human, UniProt P07437 1-444); experiment: as above
T6 construct: endogenous protein co-purified from WM115 lysate
In short: as §1

HNRNPU = target: T7, HNRNPU (human, UniProt Q00839 2-825, limits assumed); experiment: as above
T7 construct: endogenous protein co-purified from WM115 lysate
In short: as §1

FLNA = target: T8, FLNA (human, UniProt P21333 2-2647, limits assumed); experiment: as above
T8 construct: endogenous protein co-purified from WM115 lysate
In short: as §1

Measured: binding result

T2 sequence (P38646 47-679 limits assumed): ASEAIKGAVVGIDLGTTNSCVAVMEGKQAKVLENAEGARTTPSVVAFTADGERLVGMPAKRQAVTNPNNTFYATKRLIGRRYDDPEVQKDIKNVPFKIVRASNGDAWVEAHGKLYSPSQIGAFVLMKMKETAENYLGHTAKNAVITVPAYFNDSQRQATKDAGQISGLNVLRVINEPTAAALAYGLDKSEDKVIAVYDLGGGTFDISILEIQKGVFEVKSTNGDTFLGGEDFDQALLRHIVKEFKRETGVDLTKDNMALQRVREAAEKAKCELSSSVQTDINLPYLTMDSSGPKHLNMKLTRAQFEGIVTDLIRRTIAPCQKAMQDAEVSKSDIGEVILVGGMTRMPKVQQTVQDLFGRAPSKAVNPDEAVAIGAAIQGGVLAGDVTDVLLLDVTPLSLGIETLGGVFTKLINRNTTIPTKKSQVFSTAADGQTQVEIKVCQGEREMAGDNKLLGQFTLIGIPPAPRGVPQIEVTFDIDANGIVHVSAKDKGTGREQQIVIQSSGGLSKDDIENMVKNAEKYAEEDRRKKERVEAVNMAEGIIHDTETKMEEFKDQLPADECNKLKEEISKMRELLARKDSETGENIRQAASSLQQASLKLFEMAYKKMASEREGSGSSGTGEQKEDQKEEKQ
T7 sequence (Q00839 2-825 limits assumed): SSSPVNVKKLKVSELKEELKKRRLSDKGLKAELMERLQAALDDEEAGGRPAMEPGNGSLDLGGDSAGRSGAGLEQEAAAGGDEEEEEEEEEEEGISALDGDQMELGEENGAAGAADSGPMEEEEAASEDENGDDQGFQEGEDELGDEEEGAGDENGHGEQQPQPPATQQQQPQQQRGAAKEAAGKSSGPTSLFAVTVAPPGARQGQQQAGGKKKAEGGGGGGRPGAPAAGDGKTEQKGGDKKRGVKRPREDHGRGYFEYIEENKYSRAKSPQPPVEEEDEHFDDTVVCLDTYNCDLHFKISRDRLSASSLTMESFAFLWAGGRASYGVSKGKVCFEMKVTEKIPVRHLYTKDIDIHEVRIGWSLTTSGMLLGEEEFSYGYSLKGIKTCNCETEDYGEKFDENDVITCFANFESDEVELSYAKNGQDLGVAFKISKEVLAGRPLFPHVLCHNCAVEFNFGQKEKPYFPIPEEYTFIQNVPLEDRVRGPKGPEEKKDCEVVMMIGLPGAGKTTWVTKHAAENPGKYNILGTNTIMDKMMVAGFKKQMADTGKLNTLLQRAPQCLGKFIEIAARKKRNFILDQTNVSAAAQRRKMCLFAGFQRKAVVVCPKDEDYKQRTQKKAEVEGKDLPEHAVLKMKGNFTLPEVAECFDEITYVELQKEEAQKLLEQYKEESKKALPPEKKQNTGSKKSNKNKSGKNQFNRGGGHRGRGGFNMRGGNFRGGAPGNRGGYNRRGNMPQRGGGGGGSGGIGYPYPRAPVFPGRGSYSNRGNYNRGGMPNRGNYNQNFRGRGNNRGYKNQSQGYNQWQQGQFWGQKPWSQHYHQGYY
T3 sequence (P35580 whole entry): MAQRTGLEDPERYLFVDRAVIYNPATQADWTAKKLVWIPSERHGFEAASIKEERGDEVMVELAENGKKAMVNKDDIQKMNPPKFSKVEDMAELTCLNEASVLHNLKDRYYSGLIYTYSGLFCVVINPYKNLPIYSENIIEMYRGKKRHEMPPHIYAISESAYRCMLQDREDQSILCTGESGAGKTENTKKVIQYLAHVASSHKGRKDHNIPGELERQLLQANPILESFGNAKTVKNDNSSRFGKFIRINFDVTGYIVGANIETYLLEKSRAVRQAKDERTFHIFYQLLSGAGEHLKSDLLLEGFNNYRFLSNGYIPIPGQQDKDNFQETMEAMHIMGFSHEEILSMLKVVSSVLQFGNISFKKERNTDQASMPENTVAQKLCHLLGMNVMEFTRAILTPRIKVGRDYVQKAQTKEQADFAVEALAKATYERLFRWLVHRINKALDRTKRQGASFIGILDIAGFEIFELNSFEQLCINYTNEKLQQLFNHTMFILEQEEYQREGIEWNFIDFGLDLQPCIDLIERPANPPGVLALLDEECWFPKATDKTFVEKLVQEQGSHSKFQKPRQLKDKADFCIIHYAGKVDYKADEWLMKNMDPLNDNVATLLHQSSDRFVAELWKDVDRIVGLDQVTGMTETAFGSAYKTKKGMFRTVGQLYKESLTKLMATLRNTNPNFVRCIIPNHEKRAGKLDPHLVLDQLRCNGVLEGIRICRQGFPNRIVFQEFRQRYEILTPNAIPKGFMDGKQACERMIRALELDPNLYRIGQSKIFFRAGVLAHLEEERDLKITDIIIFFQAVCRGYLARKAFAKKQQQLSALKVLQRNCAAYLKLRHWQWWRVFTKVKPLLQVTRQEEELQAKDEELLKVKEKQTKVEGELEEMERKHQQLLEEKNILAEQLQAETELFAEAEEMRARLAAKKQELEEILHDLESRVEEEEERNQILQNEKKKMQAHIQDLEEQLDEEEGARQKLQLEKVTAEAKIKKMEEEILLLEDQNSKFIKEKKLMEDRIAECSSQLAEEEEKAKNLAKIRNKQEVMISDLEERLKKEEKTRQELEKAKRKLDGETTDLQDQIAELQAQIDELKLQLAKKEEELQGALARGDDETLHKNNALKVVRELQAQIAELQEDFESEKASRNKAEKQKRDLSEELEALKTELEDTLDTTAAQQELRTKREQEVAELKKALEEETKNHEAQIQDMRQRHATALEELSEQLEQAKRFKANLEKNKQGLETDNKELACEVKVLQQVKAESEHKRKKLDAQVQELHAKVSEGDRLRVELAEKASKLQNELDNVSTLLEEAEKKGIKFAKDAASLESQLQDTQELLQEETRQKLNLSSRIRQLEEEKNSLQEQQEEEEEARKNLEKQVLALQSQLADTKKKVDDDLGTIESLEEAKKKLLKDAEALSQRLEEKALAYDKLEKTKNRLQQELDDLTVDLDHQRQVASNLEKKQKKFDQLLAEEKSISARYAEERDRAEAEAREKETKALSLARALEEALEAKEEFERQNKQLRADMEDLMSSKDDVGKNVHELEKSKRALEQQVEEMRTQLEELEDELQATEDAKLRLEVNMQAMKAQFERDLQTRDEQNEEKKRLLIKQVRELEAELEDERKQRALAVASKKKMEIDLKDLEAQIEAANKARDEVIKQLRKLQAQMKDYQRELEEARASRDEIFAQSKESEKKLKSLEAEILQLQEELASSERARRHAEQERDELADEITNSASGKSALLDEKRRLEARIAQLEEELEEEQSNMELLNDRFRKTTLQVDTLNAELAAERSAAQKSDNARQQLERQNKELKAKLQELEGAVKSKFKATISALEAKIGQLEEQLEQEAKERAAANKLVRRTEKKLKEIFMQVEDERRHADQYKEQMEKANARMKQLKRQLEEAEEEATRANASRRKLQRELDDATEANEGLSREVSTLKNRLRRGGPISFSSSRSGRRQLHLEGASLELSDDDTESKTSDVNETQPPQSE
T6 sequence (P07437 whole entry): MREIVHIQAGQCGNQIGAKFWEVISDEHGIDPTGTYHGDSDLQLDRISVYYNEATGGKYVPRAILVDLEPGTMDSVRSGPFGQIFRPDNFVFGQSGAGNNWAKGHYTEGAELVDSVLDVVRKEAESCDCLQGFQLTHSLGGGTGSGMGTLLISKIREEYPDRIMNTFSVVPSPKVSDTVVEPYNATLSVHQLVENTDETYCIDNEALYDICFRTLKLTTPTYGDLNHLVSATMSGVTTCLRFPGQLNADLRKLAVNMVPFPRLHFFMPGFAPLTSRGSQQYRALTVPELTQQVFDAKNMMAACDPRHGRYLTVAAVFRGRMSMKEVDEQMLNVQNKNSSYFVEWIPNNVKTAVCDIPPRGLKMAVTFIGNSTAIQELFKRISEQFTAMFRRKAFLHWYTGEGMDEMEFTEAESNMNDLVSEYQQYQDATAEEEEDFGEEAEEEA

B1: Flag-tagged SHARPIN (other, human, UniProt Q9H0F6 1-387, looked up)
chain: MAPPAGGAAAAASDLGSAAVLLAVHAAVRPLGAGPDAEAQLRRLQLSADPERPGRFRLELLGAGPGAVNLEWPLESVSYTIRGPTQHELQPPPGGPGTLSLHFLNPQEAQRWAVLVRGATVEGQNGSKSNSPPALGPEACPVSLPSPPEASTLKGPPPEADLPRSPGNLTEREELAGSLARAIAGGDEKGAAQVAAVLAQHRVALSVQLQEACFPPGPIRLQVTLEDAASAASAASSAHVALQVHPHCTVAALQEQVFSELGFPPAVQRWVIGRCLCVPERSLASYGVRQDGDPAFLYLLSAPREAPATGPSPQHPQKMDGELGRLFPPSLGLPPGPQPAASSLPSPLQPSWSCPSCTFINAPDRPGCEMCSTQRPCTWDPLAAAST
notes: also called Flag-SHARPIN; not shown: FLAG tag
binds: all assays above
